Data reported in article PMC11417369, “DNA sequence and chromatin differentiate sequence-specific transcription factor binding in the human malaria parasite Plasmodium falciparum”.

T1: AP2-LT D1 (Plasmodium falciparum, UniProt Q8IAM1 2520-2577)
T1 sequence: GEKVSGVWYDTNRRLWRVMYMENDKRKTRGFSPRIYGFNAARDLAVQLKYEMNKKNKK

T2: PF3D7_0420300 D1 (Plasmodium falciparum, UniProt Q8I1N6 1956-2015)
T2 sequence: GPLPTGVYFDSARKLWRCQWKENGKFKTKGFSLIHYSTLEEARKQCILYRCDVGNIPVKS

B1: CACACA_negctrl_site1820 (dsDNA)
DNA 1: AGAATTGTTGTTAAAGAATTCTTTTTTATCCTTCCC
DNA 2: GGGAAGGATAAAAAAGAATTCTTTAACAACAATTCT
B2: CACACA_negctrl_site1493 (dsDNA)
DNA 1: TGTTCTTATTTTATAAGCATATAATTAATCATAATG
DNA 2: CATTATGATTAATTATATGCTTATAAAATAAGAACA
B3: CACACA_negctrl_site1682 (dsDNA)
DNA 1: TGTTATATCAATAATATATAATAATACCCTTCTTTT
DNA 2: AAAAGAAGGGTATTATTATATATTATTGATATAACA
B4: CACACA_negctrl_site1031 (dsDNA)
DNA 1: ATTATTTGAACAACAAAAAAAAAGAAAAGAAAAGAA
DNA 2: TTCTTTTCTTTTCTTTTTTTTTGTTGTTCAAATAAT
B5: CACACA_negctrl_site94 (dsDNA)
DNA 1: TTTTTTTTTTTTTTTTTTTTTTTCTACCTATTTATT
DNA 2: AATAAATAGGTAGAAAAAAAAAAAAAAAAAAAAAAA
B6: CACACA_negctrl_site949 (dsDNA)
DNA 1: TATATATGGGTACTAATTCCTTTAATTTCTTTAATT
DNA 2: AATTAAAGAAATTAAAGGAATTAGTACCCATATATA
B7: CACACA_negctrl_site996 (dsDNA)
DNA 1: GAAAAAAAAAAAAAAAAAAAAAGGAAAAAAGTGAAA
DNA 2: TTTCACTTTTTTCCTTTTTTTTTTTTTTTTTTTTTC
B8: CACACA_negctrl_site43 (dsDNA)
DNA 1: TTCTTAATTCATACCATCAAAACATTTATTCATATC
DNA 2: GATATGAATAAATGTTTTGATGGTATGAATTAAGAA
B9: CACACA_negctrl_site687 (dsDNA)
DNA 1: GTTAAACATCTTCTGTGATATGTTAGAATATTATTT
DNA 2: AAATAATATTCTAACATATCACAGAAGATGTTTAAC
B10: CACACA_site7149 (dsDNA)
DNA 1: CCCCCCCACGAACACACACACATACATACCACATAT
DNA 2: ATATGTGGTATGTATGTGTGTGTGTTCGTGGGGGGG
B11: CACACA_negctrl_site1475 (dsDNA)
DNA 1: AATGATTTTCAATCGAAATGAAACTTAGAAGATATA
DNA 2: TATATCTTCTAAGTTTCATTTCGATTGAAAATCATT
B12: CACACA_negctrl_site1708 (dsDNA)
DNA 1: AAAACTTTTTTAACAGAAAAATAGGGATACAATATA
DNA 2: TATATTGTATCCCTATTTTTCTGTTAAAAAAGTTTT
B13: CACACA_negctrl_site1518 (dsDNA)
DNA 1: AAGGGAAAATAATAAAAGAAAAAGAAAAAAAAAAAA
DNA 2: TTTTTTTTTTTTCTTTTTCTTTTATTATTTTCCCTT
B14: CACACA_site3850 (dsDNA)
DNA 1: TAAAATAAAACAAACACACACACACCCCCACAAAAA
DNA 2: TTTTTGTGGGGGTGTGTGTGTGTTTGTTTTATTTTA
B15: CACACA_negctrl_site1516 (dsDNA)
DNA 1: TAACCAAAAAAAAATATTTAAAATAAATATATATAT
DNA 2: ATATATATATTTATTTTAAATATTTTTTTTTGGTTA
B16: CACACA_negctrl_site847 (dsDNA)
DNA 1: TTTTAAAATAAAAAAATAAAAAAAGGGGAAAAAAAA
DNA 2: TTTTTTTTCCCCTTTTTTTATTTTTTTATTTTAAAA
B17: CACACA_negctrl_site97 (dsDNA)
DNA 1: AATAAAGGAAATAAATAATTTATTTTGTAAAATATG
DNA 2: CATATTTTACAAAATAAATTATTTATTTCCTTTATT
B18: CACACA_negctrl_site1656 (dsDNA)
DNA 1: TTTTGATCTGAAGGAACCTAAAAAGGGAAGAGAAAA
DNA 2: TTTTCTCTTCCCTTTTTAGGTTCCTTCAGATCAAAA
B19: CACACA_negctrl_site982 (dsDNA)
DNA 1: ATTTTTTTTTTTTTTTTTTTTTTTTTTGAATTCACA
DNA 2: TGTGAATTCAAAAAAAAAAAAAAAAAAAAAAAAAAT
B20: CACACA_negctrl_site1634 (dsDNA)
DNA 1: TTGGTAAATATATTTTGAATATAAGAAATATAGACG
DNA 2: CGTCTATATTTCTTATATTCAAAATATATTTACCAA
B21: CACACA_negctrl_site377 (dsDNA)
DNA 1: GTATAACAACTGATAAAAGAAAAAAAATTTATTATT
DNA 2: AATAATAAATTTTTTTTCTTTTATCAGTTGTTATAC
B22: CACACA_negctrl_site1330 (dsDNA)
DNA 1: TAATAAATTCAAAACATAAAAAGGAAAAAAAAAAAA
DNA 2: TTTTTTTTTTTTCCTTTTTATGTTTTGAATTTATTA
B23: CACACA_negctrl_site1417 (dsDNA)
DNA 1: AAAAATATTATGATGTTTATTAGAAAGGAAAAAACT
DNA 2: AGTTTTTTCCTTTCTAATAAACATCATAATATTTTT
B24: CACACA_negctrl_site1062 (dsDNA)
DNA 1: TTATATGCATCCAAAAAGGAATGTTTTTAGAGAATC
DNA 2: GATTCTCTAAAAACATTCCTTTTTGGATGCATATAA
B25: CACACA_negctrl_site338 (dsDNA)
DNA 1: TCGTCTCAATAATTATAATAAAAAAATTCCTAAGTC
DNA 2: GACTTAGGAATTTTTTTATTATAATTATTGAGACGA
B26: CACACA_negctrl_site908 (dsDNA)
DNA 1: TTATGGATGGACAATAATAAAATTTTTACTTTTATT
DNA 2: AATAAAAGTAAAAATTTTATTATTGTCCATCCATAA
B27: CACACA_negctrl_site1356 (dsDNA)
DNA 1: TGTTTAACACATGTTTCAAACAAAAAAAAAAAGACA
DNA 2: TGTCTTTTTTTTTTTGTTTGAAACATGTGTTAAACA
B28: CACACA_negctrl_site1412 (dsDNA)
DNA 1: TATATTTGGTTTCATTCATTTTTATAGAAATCTCAA
DNA 2: TTGAGATTTCTATAAAAATGAATGAAACCAAATATA
B29: CACACA_site2303 (dsDNA)
DNA 1: CATATTCCCCCCCACACACACACACCCATACATACC
DNA 2: GGTATGTATGGGTGTGTGTGTGTGGGGGGGAATATG
B30: CACACA_site367 (dsDNA)
DNA 1: CACCCACCCAGACACACACACACACCCCCACCCATA
DNA 2: TATGGGTGGGGGTGTGTGTGTGTGTCTGGGTGGGTG
B31: CACACA_negctrl_site1268 (dsDNA)
DNA 1: ATATTTTTATGATGTATCCAAGAAATGGAACTATAT
DNA 2: ATATAGTTCCATTTCTTGGATACATCATAAAAATAT
B32: CACACA_negctrl_site1157 (dsDNA)
DNA 1: TTTTTGTATTCTACCTTAACAATCTTAAAGATTTTT
DNA 2: AAAAATCTTTAAGATTGTTAAGGTAGAATACAAAAA

target: T1, AP2-LT D1; test: gcPBM; about 25 ug protein; PBS, 1% milk, 0.2 mg/ml BSA, salmon testes DNA, 0.03% Triton X-100; conditions: tags: N-terminal GST (pGEX-4T-1), kept; label: surface-attached array probe

Binder | binding signal
B1 | 8.88 ln median PBM intensity, better of two orientations
B2 | 8.77 ln median PBM intensity, better of two orientations
B3 | 8.8 ln median PBM intensity, better of two orientations
B4 | 8.83 ln median PBM intensity, better of two orientations
B5 | 8.86 ln median PBM intensity, better of two orientations
B6 | 8.85 ln median PBM intensity, better of two orientations
B7 | 8.82 ln median PBM intensity, better of two orientations
B8 | 8.88 ln median PBM intensity, better of two orientations
B9 | 8.83 ln median PBM intensity, better of two orientations
B10 | 10.7 ln median PBM intensity, better of two orientations
B11 | 8.78 ln median PBM intensity, better of two orientations
B12 | 8.86 ln median PBM intensity, better of two orientations
B13 | 8.87 ln median PBM intensity, better of two orientations
B14 | 10.7 ln median PBM intensity, better of two orientations
B15 | 8.88 ln median PBM intensity, better of two orientations
B16 | 8.83 ln median PBM intensity, better of two orientations

Binder | binding signal
B17 | 8.84 ln median PBM intensity, better of two orientations
B18 | 8.82 ln median PBM intensity, better of two orientations
B19 | 8.8 ln median PBM intensity, better of two orientations
B20 | 8.87 ln median PBM intensity, better of two orientations
B21 | 8.85 ln median PBM intensity, better of two orientations
B22 | 8.86 ln median PBM intensity, better of two orientations
B23 | 8.85 ln median PBM intensity, better of two orientations
B24 | 8.79 ln median PBM intensity, better of two orientations
B25 | 8.78 ln median PBM intensity, better of two orientations
B26 | 8.82 ln median PBM intensity, better of two orientations
B27 | 8.88 ln median PBM intensity, better of two orientations
B28 | 8.84 ln median PBM intensity, better of two orientations
B29 | 10.8 ln median PBM intensity, better of two orientations
B30 | 11 ln median PBM intensity, better of two orientations
B31 | 8.85 ln median PBM intensity, better of two orientations
B32 | 8.8 ln median PBM intensity, better of two orientations

target: T2, PF3D7_0420300 D1; test: as above; conditions: tags: N-terminal GST (pGEX-4T-1), kept; label: surface-attached array probe

Binder | binding signal
B10 | 10.7 ln median PBM intensity, better of two orientations
B14 | 10.7 ln median PBM intensity, better of two orientations
B29 | 11 ln median PBM intensity, better of two orientations
B30 | 10.8 ln median PBM intensity, better of two orientations
